Results reported in patent publication US20080241155A1 (Human Genome Sciences, published 2008).

T1: Fas ligand (UniProt P48023 130-281, limits assumed)
T1 construct: Detected by immunoblotting with an antibody to FasL (Pharmingen)
T1 sequence (looked up): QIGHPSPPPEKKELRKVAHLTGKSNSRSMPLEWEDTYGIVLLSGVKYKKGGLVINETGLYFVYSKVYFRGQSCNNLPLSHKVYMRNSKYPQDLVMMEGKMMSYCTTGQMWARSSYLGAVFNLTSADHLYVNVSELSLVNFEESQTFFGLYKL


Tests used:
[1] = molecular target: T2, TRAIL (TNF-related apoptosis-inducing ligand), soluble (UniProt P50591 95-281, limits assumed); experiment: receptor-Fc / ligand co-precipitation, immunoblot
T2 construct: also called Apo-2 ligand; Apo-2L

[2] = molecular target: T3, TNFα (tumor necrosis factor alpha) (UniProt P01375 77-233, limits assumed); experiment: co-precipitation from mixed conditioned media with protein G-Sepharose, immunoblot
T3 construct: also called TNF alpha

[3] = molecular target: T1, Fas ligand; experiment: receptor-Fc / ligand co-precipitation, immunoblot

T2 sequence (P50591 95-281 limits assumed): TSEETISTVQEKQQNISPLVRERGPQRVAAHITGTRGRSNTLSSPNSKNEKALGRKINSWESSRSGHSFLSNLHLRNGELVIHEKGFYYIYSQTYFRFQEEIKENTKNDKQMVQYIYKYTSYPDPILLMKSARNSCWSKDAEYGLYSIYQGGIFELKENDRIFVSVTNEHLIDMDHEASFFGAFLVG
T3 sequence (P01375 77-233 limits assumed): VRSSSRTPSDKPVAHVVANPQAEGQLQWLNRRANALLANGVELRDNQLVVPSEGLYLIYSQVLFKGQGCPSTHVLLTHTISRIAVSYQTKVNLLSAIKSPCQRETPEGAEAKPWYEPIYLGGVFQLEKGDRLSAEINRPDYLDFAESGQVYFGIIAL

binding result [1] | binding result [3] | Binder | binding result [2]
no binding |  | CD95-Fc (extracellular domain of CD-95 / Fas expressed as an Fc fusion) (Fc fusion, UniProt P25445 26-173, looked up, extracellular domain; also called Fas-Fc; Fc-extracellular domain of Fas; not shown: Fc portion of human IgG) QVTDINSKGLELRKTVTTVETQNLEGLHHDGQFCHKPCPPGERKARDCTVNGDEPDCVPCQEGKEYTDKAHFSSKCRRCRLCDEGHGLEVEINCTRTQNTKCRCKPNFFCNSTVCEHCDPCTKCEHGIIKECTLTSNTKCKEEGSRSN | 
 | no binding | DR4-Fc (soluble extracellular ligand binding domain of DR4, amino acids 110 to 239, fused to the Fc portion of human IgG) (Fc fusion, Cloned into a modified pCMV1FLAG vector for in-frame fusion with human IgG Fc and expressed in 293 cells; used as conditioned medium; also called soluble extracellular DR4-Fc fusion; Fc-extracellular domain of DR4; not shown: Fc portion of human immunoglobulin (IgG)) TIKLHDQSIGTQQWEHSPLGELCPPGSHRSERPGACNRCTEGVGYTNASNNLFACLPCTACKSDEEERSPCTTTRNTACQCKPGTFRNDNSAEMCRKCSTGCPRGMVKVKDCTPWSDIECVHKESGNGHN | no binding
no binding |  | TNFR1-Fc (extracellular domain of TNFR-1 expressed as an Fc fusion) (Fc fusion, UniProt P19438 30-211, looked up, extracellular domain; not shown: Fc portion of human IgG) LVPHLGDREKRDSVCPQGKYIHPQNNSICCTKCHKGTYLYNDCPGPGQDTDCRECESGSFTASENHLRHCLSCSKCRKEMGQVEISSCTVDRDTVCGCRKNQYRHYWSENLFQCFNCSLCLNGTVHLSCQEKQNTVCTCHAGFFLRENECVSCSNCKKSLECTKLCLPQIENVKGTEDSGTT | 
